Experimental data reported in patent publication US20210355175A1 (University of Washington, published 2021).

B1: DHD37_ABXB chain b (designed binder)
chain: GSDDKELDKLLDTLEKILQTATKIIDDANKLLEKLRRSERKDPKVVETYVELLKRHEKAVKELLEIAKTHAKKVE
notes: Used in Y2H as a co-expressed input or fused to Gal4 AD/DBD; also called 1′; 1′ (b)
B4: DHD37_ABXB chain a (designed binder)
chain: DSDEHLKKLKTFLENLRRHLDRLDKHIKQLRDILSENPEDERVKDVIDLSERSVRIVKTVIKIFEDSVRKKE
notes: In Y2H it was fused to Gal4 AD or DBD
B5: DHD13_XAAA chain b (designed binder)
chain: GTEKRLLEEAERAHREQKEIIKKAQELHRRLEEIVRQSGSSEEAKKEAKKILEEIRELSKRSLELLREILYLSQEQKGSLVPR
notes: also called 9′

What was measured:
DHD39 chain b = biological target: T1, DHD39 chain b; test: individual yeast two-hybrid experiments
T1 construct: In the NOR gate it was fused to the Gal4 DBD; also called 10′; DHD_39 b
T1 chain: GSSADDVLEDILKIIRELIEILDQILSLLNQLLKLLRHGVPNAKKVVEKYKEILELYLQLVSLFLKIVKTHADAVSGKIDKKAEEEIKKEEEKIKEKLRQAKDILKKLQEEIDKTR

DHD37_ABXB chain a = biological target: B4; test: individual yeast two-hybrid experiments
DHD13_XAAA chain b = biological target: B5; test: yeast two-hybrid competition by the co-expressed unfused monomer
DHDSC_9-13-37 chain 13b = biological target: T2, DHDSC_9-13-37 chain 13b; test: co-expression in E. coli, one b monomer His-tagged
T2 chain: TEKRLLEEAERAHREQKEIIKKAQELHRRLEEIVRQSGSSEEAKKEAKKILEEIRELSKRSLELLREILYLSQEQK

DHD9 chain b = biological target: T3, DHD9 chain b; test: co-expression in E. coli, one b monomer His-tagged
T3 construct: also called 9b; 9_b
T3 chain: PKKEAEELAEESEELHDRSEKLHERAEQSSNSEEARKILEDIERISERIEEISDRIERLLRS

2′-1′_6-residue_linker [1] = biological target: T4, 2′-1′_6-residue_linker; test: thermodynamic model matched to native MS titration data
T4 construct: also called 1′-2′; 1′-2′ with a 6-residue linker
T4 chain: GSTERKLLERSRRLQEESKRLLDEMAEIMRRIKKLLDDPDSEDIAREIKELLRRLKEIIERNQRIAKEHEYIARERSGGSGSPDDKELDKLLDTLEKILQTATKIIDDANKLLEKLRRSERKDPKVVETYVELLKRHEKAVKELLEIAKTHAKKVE
Description: (§1) We studied the cooperativity of the induced dimerizer system in vitro using native mass spectrometry (FIG. 11F). […] We define cooperativity as the ratio of the affinities in the presence and absence of the other monomer, which in our model directly relates to the free energy of opening of the dimerizer (c=e^ΔG^ₒₚₑₙ^{/RT}, see supplementary materials).

2′-1′_6-residue_linker [2] = biological target: T4, 2′-1′_6-residue_linker; test: native mass spectrometry, 10 µM of 1 and 1′-2′; bound from the detection limit of 0.0375 µM
2′-1′_6-residue_linker [3] = biological target: T4, 2′-1′_6-residue_linker; test: calculated from the cooperativity factor fitted to native MS data
Description: as §1
We experimentally estimated K₁ using native MS experiments.

DHD37_ABXB chain b = biological target: B1; test: individual yeast two-hybrid experiments
DHD37_1:234 chain b = biological target: T5, DHD37_1:234 chain b; test: X-ray crystal structure of the heterodimer
T5 construct: Single-helix monomer of the backbone-permuted 3+1 heterodimer
T5 chain: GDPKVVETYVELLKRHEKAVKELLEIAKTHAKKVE
Description: (§2) The X-ray data sets were collected at the Advanced Light Source at Lawrence Berkeley National Laboratory with beamlines 8.2.1 and 8.2.2. Data sets were indexed and scaled using either XDS³³ or HKL2000³⁴. Initial models were generated by the molecular-replacement method with the program PHASER³⁵ within the Phenix™ software suite³⁶, using the design models as the initial search models. Efforts were made to reduce model bias through refinement with simulated annealing using Phenix.Refine™³⁷, or, if the resolution was sufficient, by using Phenix.Autobuild™³⁸ with rebuild-in-place set to false, simulated annealing and prime-and-switch phasing. Iterative rounds of manual building in COOT³⁹ and refinement in Phenix™ were used to produce the final models. […] RMSDs of bond lengths, angles and dihedrals from ideal geometries were calculated with Phenix™³⁶.

yeast two-hybrid = biological target: the molecule itself; test: yeast two-hybrid
DHD17 chain b = biological target: T6, DHD17 chain b; test: yeast two-hybrid
T6 construct: Co-expressed input protein of the NOT gate; also called 8′
T6 chain: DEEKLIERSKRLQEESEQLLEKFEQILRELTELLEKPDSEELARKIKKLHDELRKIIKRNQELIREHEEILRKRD

DHD127 chain b = biological target: T7, DHD127 chain b; test: X-ray crystal structure of the heterodimer
T7 construct: also called DHD_127 b
T7 chain: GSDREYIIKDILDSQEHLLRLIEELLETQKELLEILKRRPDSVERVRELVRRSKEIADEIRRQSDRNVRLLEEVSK
Description: as §2

B1
binding result (DHD39 chain b): binds

B2: DHD13_XAAA chain a (designed binder)
chain: GTKEDILERQRKIIERAQEIHRRQQEILEELERIIRKPGSSEEAMKRMLKLLEESLRLLKELLELSEESAQLLYEQR
binding result (DHD39 chain b): binds
binding result (DHD37_ABXB chain a): binds
binding result (DHD13_XAAA chain b): binds

B3: DHDSC_9-13-37 scaffold, chain 9a-13a-37a (designed binder)
chain: PKEEARELIRKQKELIKEQKKLIKEAKQKSDSRDAERIWKRSREINRESKKINKRIKELIKSGSEGSGSEGSGSTKEDILERQRKIIERAQEIHRRQQEILEELERIIRKPGSSEEAMKRMLKLLEESLRLLKELLELSEESAQLLYEQRGSEGSGSEGSGSDSDEHLKKLKTFLENLRRHLDRLDKHIKQLRDILSENPEDERVKDVIDLSERSVRIVKTVIKIFEDSVRKKE
binding result (DHDSC_9-13-37 chain 13b): binds
binding result (DHD9 chain b): binds

B4
cooperativity c (ratio of the affinities in the presence and absence of the other monomer) (2′-1′_6-residue_linker [1]): 991000
Kd (2′-1′_6-residue_linker [2]): 2.65 mM
Kd (2′-1′_6-residue_linker [3]): 9.91 mM
binding result (DHD37_ABXB chain b): binds

B5
binding result (DHD37_ABXB chain b): binds

B6: DHD37_1:234 chain a (designed binder)
chain: DSDEHLYKLKTFLENLRRHLDRLDKHIKQLRDILSENPEDERVKDAIDLSERSVRIVKTVIKIFEDSVRKKEKRPIDKRDDKELDKLLDTLEKILQTATKIIDDANKLLEYLRR
notes: Three-helix monomer of the backbone-permuted 3+1 heterodimer
binding result (DHD37_1:234 chain b): binds

B7: DHD17 chain a (designed binder)
chain: DRKDLLKRNIKLLDRHLKILDTILKLLEKLSELLKKSSSEEVVKEYKKILDEIRKLLEESKEIHKESKEILERES
notes: In the NOT gate it was fused to both Gal4 AD and DBD; also called DHS 17 a
binding result (yeast two-hybrid): binds
binding result (DHD17 chain b): binds

B8: DHD127 chain a (designed binder)
chain: GSPRSYLLKELADLSQHLVRLLERLVRESERVVEVLERGEVDEEELKRLEDLHRELEKAVREVRETHREIRERSR
notes: also called DHD_127 a
binding result (DHD127 chain b): binds

B9: DHD39 chain a (designed binder)
chain: DHSRKLEEILDRLRKHVKRLLEHLRELLSLVKENPEDKDLVEVLELSLAILRRSLEAVEAFLKSVTKKDPDDEDLRRKADEIRKEVEEIKKSLAEVEKEIYKLK
notes: also called 10; DHD_39 a
binding result (DHD39 chain b): binds
